Test results taken from patent US20260069689A1 (Regeneron, published 2026).

Legend:
[1] = biological target: T1, SARS-COV-2 RBD extracellular domain expressed with a C-terminal mouse IgG2a Fc (SARS-CoV-2); assay: Biacore SPR, mAb captured on anti-hFc, 25 C
[2] = biological target: T1, SARS-COV-2 RBD extracellular domain …; assay: Biacore SPR, mAb captured on anti-hFc, 37 C

Binder | Kd [1] | koff [1] | kon [1] | t½ [1] | Kd [2] | koff [2] | kon [2] | t½ [2]
mAb14230 (antibody, V domains shown) VH: EVQLVESGGGLIQPGRSLRLSCAASGFTFDDYAMHWVRQAPGKGLEWVSGISWNSVSIDYADSVKGRFTISRDNAKNSLYLQMTSLTVEDTALYYCAKAFGYETLTGSDYFAYWGPGTLVTVSS VL: EIVLTQSPGTLSLSPGERATLSCRASQTVISTYLAWYQQKPGQSPRLLIYGASSRATGIPDRFSGSGSGTDFTLTISRLEPEDFAVYYCQQYGSSPQLTFGGGTKVEIKR | 0.142 nM | 0.000286 s⁻¹ | 2e+06 M⁻¹ s⁻¹ | 40.5 min | 0.268 nM | 0.00049 s⁻¹ | 1.82e+06 M⁻¹ s⁻¹ | 23.6 min
mAb15156 (antibody, V domains shown) VH: QLQLQESGPGLVKSSETLSLTCTVSASITGSTYYWGWIRQPPGKGLEWIGSIYYSGTTYYKASLKSRVTISVDTSKNQFSLKLTSVTVADTAVYYCVSHLLGNYHKYGMDVWGQGTTVTVSS VL: not shown | 0.0369 nM | 5.22e-05 s⁻¹ | 1.41e+06 M⁻¹ s⁻¹ | 221 min | 0.63 nM | 0.000112 s⁻¹ | 178000 M⁻¹ s⁻¹ | 103 min
mAb14281 (antibody, V domains shown) VH: QVQLVQSGADVKKPGASVKVSCKTSGYIFTGYYIHWVRQAPGQGLEWMGWINPNSGGTNSAQKFQGRVTMTRDTSISTVYMELSRLRSDDTAVYYCAKSNSFSVLDYNFDYWGQGTLVTVSS VL: SSELTQDPAVSVALGQTVRITCQGDSLRSYYASWYQQKPGQAPVLVIYDKNNRPSGIPDRFSGSSSGNTASLTITGAQAEDEADYYCNSRDSSRNHLVVFGGGTKLTVLG | 0.146 nM | 0.000213 s⁻¹ | 1.46e+06 M⁻¹ s⁻¹ | 54.3 min | 0.271 nM | 0.000365 s⁻¹ | 1.34e+06 M⁻¹ s⁻¹ | 31.7 min
mAb15161 (antibody, V domains shown) VH: EVQLVESGGGLVQPGGSLRLSCAASGFTFSSYEMNWVRQAPGKGLEWVSYISSSGSILYYADSVKGRFTASRDNAKNSLYLQMNSLRAEDTGVYYCARREYQLLRPFEFWGQGTLVTVSS VL: not shown | 0.0119 nM | 1.26e-05 s⁻¹ | 1.06e+06 M⁻¹ s⁻¹ | 914 min | 0.0469 nM | 4.9e-05 s⁻¹ | 1.05e+06 M⁻¹ s⁻¹ | 236 min
mAb14232 (antibody, V domains shown) VH: QITLKESGPTLVKPTQTLTLTCTFSGFSLSASGVGVGWIRQPPGKALEWLALIYWDDDKRYSPSLKSRLTITKDTSKNQVVLTMTNMDPVDTATYYCAQHKVATIFDYWGQGTLVTVSS VL: QSALTQPPSASGSPGQSVTISCTATSSDVGNYNYVSWYQQHPGKAPKLMIYEVTKRPSGVPDRFSGSKSGNTASLTVSGLQAEDEADYYCSSYAGSWGVFGGGTKLTVLG | 0.878 nM | 0.00173 s⁻¹ | 1.97e+06 M⁻¹ s⁻¹ | 6.7 min | 0.893 nM | 0.00188 s⁻¹ | 2.1e+06 M⁻¹ s⁻¹ | 6.1 min
mAb14282 (antibody, V domains shown) VH: QVQLVQSGAEVKKPGASVKVSCKASGYIFTDHYMHWVRQAPGQGLEWMGWINPNSGATNYAQNFQGRVTMTRDTSIITVYMELSRLRSDDTAVYYCARDSSPYMIRYTMDVWGQGTTITVSS VL: QSALTQPASVSGSPGQSITISCTGTSSDVGSYNLVSWYQQHPGKAPKLMIYELTKRPSGVSNRFSGSKSGNTASLTISGLQAEDEADYYCSSYRGSVTDVVFGGGTKLTVLG | 0.186 nM | 0.000403 s⁻¹ | 2.17e+06 M⁻¹ s⁻¹ | 28.7 min | 0.247 nM | 0.000546 s⁻¹ | 2.21e+06 M⁻¹ s⁻¹ | 21.1 min
mAb14285 (antibody, V domains shown) VH: QVQLVQSGAEVKKPGASVKVSCKASGYTFTGYFIHWVRQAPGQGLEWMGWISPISGGTNYAQKFQGRVTVTRDTSITTAYMELSRLTSDDTAVYHCAREGGTWKGDFDYWGQGTLVTVSS VL: QSALTQPASVSGSPGQSITISCTGTSSDVESYNLVSWYQQHPGKAPKLMIYEGSKRPSGVSNRFSGSKSGNTASLTISGLQAEDEADYYCSSYAGSSTWVFGGGTKLTVLG | 0.0868 nM | 0.000502 s⁻¹ | 5.78e+06 M⁻¹ s⁻¹ | 23 min | 0.231 nM | 0.00103 s⁻¹ | 4.45e+06 M⁻¹ s⁻¹ | 11.2 min
mAb15158 (antibody, V domains shown) VH: EVQLVESGGGLVQPGGSLRLSCAASGFSFSSNWMSWVRQAPGKGLEWVGNINQDGSEKYYVDSVEGRFTISRDNAKKSLYLQMNSLRAEDTAVYYCARDLGVLWFGDFVDWGQGALVTVSS VL: DIQMTQSPSSLSASVGDRVTITCRASQAISNSLAWYQQKPGKAPKLLLYAASTLESGVPSRFSGSGSGTDYTLTISSLQPEDFATYYCLQYYGSPRTFGQGTKVEIKR | ≤ 0.0221 nM | ≤ 1e-05 s⁻¹ | 453000 M⁻¹ s⁻¹ | 1160 min | 0.17 nM | 2.9e-05 s⁻¹ | 171000 M⁻¹ s⁻¹ | 398 min
mAb14280 (antibody, V domains shown) VH: QVQLVQSGAEVKKPGASVRVSCKASGYTFTGNYIHWVRQAPGQGLEWMAWINPNSGGKNYAQKFQGRVTLTRDTSVNTAYMELSRLRSDDTAMYYCARDVNYNILTGPGGLWGQGTLVTVSS VL: QSALTQPPSASGSPGQSVTISCTGTSSDVGGYNFVSWYQQHPGKAPKLMIYEVSKRPSGVPDRFSGSKSGNTASLTVSGLQAEDEADYYCSSYAGSNNFVFGTGTKVTVLG | 0.123 nM | 0.00037 s⁻¹ | 3.02e+06 M⁻¹ s⁻¹ | 31.2 min | 0.264 nM | 0.000772 s⁻¹ | 2.92e+06 M⁻¹ s⁻¹ | 15 min
mAb14234 (antibody, V domains shown) VH: QVQLVESGGGVVQPGRSLRLSCAASGFTFSSYGIHWVRQAPGKGLEWVAIIWYDGSEKYYADSVKGRFTISRDNSKNTLFLQMNSLEAEDTAVYYCARGPDLLTGYYNYFYYGMDVWGQGTTVTVSS VL: QSVLTQPPSVSGAPGQRVTISCTGSSSNIGIGYDVHWYQQLPGTVPKLLIYGNTNRPSGVPDRFSGSKSGTSASLAITGLQAEDEADYYCQSYDSSLSSYVFGTGTKVTVLG | 0.119 nM | 0.000121 s⁻¹ | 1.02e+06 M⁻¹ s⁻¹ | 95.2 min | 0.41 nM | 0.000402 s⁻¹ | 980000 M⁻¹ s⁻¹ | 28.8 min
mAb14256 (antibody, V domains shown) VH: QVQLQESGPGLVKPSETLSLTCTVSGGSISSHYWSWIRQPPGKGLEWIGYIYYSGSSNYNPSLKSRVTISVDTSKNQFSLKLNSVTAADTAVYYCARHYDILTGFDWFDPWGQGTLVTVSS VL: QSVLTQPPSVSGAPGQRVTISCTGSSSNIGTHYDVHWYQQLPGTAPKLLIYGNSNRPSGVPDRFSGSKSGTSASLAITGLQAEDEADYYCQSFDNSLTAPYVFGTGTKVTVLG | 0.0638 nM | 0.000181 s⁻¹ | 2.84e+06 M⁻¹ s⁻¹ | 63.7 min | 0.267 nM | 0.000473 s⁻¹ | 1.78e+06 M⁻¹ s⁻¹ | 24.4 min
mAb14286 (antibody, V domains shown) VH: QVQLVQSGAEVKKPGASVKVSCKASGYTFTDYFIHWVRQAPGQGLEWMGWINPTSGGTNYAQKFRGRVTMTRDTSISTAYVELSRLRSDDTALYYCARDLPFYSDTKQFDYWGQGTLVTVSS VL: QSALTQPASVSGYPGQSITISCTGTSSDVGGYNYVSWYQQHPGKAPKLMIFDVSNRPSGVSNRFSGSKSGNTASLTFSGLQAEDEADYYCSSYTSSSTLVFGGGTKLTVLG | 0.222 nM | 0.000655 s⁻¹ | 2.95e+06 M⁻¹ s⁻¹ | 17.6 min | 0.18 nM | 0.000528 s⁻¹ | 2.94e+06 M⁻¹ s⁻¹ | 21.9 min
mAb15157 (antibody, V domains shown) VH: EVQLVESGGALVQPGGSLRLSCAASGFPFTIYAMTWVRQAPGKGLEWVSVITGSGDSTYYADSVKGRFTISRDNSKNTLYLQMNSLRAEDTAVYYCVKTGEGFFYYYYGMDVWGQGTTVTVSS VL: QSVLTQPPSVSAAPGQKVTISCSGSSSNIGNSYISWYQQLPGTAPKLLIYVNNKRPSGIPDRFSGSKSGTSATLGITGLQTGDEADYYCGTWDSSLSAGVFGSGTKVTVLG | 0.187 nM | 6.67e-05 s⁻¹ | 357000 M⁻¹ s⁻¹ | 173 min | 0.116 nM | 0.000107 s⁻¹ | 922000 M⁻¹ s⁻¹ | 108 min
mAb15159 (antibody, V domains shown) VH: EVQLVESGGGLVQPGGSLRLSCAASGITVSSNYMTWVRQAPGKGLEWVSLIYSGGSTFYADSVRGRFTISRDNSKNTLYLQMNSLRAEDTAVYYCARDLVVYGMDVWGQGTTVTVSS VL: DIQLTQSPSSLSASVGDRVTITCRASQGISSYLAWYQQKPGKAPKLLIYAASTLQSGVPSRFSGSGSGTDFTLTISSLQPEDFATYYCQHLNSDPHTFGQGTKLEIKR | 0.0172 nM | 1.19e-05 s⁻¹ | 691000 M⁻¹ s⁻¹ | 971 min | 0.135 nM | 2.99e-05 s⁻¹ | 220000 M⁻¹ s⁻¹ | 386 min
mAb15160 (antibody, V domains shown) VH: EVQLVESGGGLVQPGGSLRLSCSASGFTFSRYAMYWVRQAPGKGLEYVSAISSDGGSTYDADSVKGRFTISRANSKNTLYLQMSSLRAEDTAVYYCVKGLRELLYYYYGMDVWGQGTTVTVSS VL: DIQMTQSPSSLSASVGDRVTITCRAGQSISSFLNWYQQKPGKAPKLLIYAASSLQSGVPSRFSGSGSGTDFTLTISSLQPEDFATYYCQQSYITPFTFGPGTKVDIKR | 0.0406 nM | 1.05e-05 s⁻¹ | 258000 M⁻¹ s⁻¹ | 1100 min | 0.181 nM | 7.9e-05 s⁻¹ | 436000 M⁻¹ s⁻¹ | 146 min
mAb14292 (antibody, V domains shown) VH: EVQLVESGGGLVQPGGSLRLSCVASGFAFSTYEMNWVRQAPGKGLEWVSYISSSGSTIYYADSVKGRLTISRDNVKNSLYLQMNSLRVEDTAIYYCARDAIRNNDILTDPATFDPWGQGTLVTVSS VL: not shown | 33.6 nM | 0.0351 s⁻¹ | 1.04e+06 M⁻¹ s⁻¹ | 0.3 min | 34.6 nM | 0.0644 s⁻¹ | 1.86e+06 M⁻¹ s⁻¹ | 0.2 min
